Data taken from patent US20260265354A1 (JIANGSU MABWELL HEALTH PHARMACEUTICAL R AND D, published 2026).
Substitutions are numbered along the chain they refer to.

T1: Nectin-like-3 (UniProt Q8N3J6 25-367, limits assumed)
T1 construct: Bought recombinant protein; also called CADM2; IgSF4D
T1 sequence (looked up): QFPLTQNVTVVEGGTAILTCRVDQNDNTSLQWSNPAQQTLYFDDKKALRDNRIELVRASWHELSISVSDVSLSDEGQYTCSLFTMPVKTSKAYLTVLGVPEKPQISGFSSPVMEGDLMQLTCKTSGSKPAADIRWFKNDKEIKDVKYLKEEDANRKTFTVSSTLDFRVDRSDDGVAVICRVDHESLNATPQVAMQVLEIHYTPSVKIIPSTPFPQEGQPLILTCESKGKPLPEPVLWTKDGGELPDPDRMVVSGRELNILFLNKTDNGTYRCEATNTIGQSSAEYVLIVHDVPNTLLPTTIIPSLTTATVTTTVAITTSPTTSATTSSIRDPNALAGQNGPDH

T2: Nectin-like-4 (UniProt Q8NFZ8 21-324, limits assumed)
T2 construct: Bought recombinant protein; also called CADM4; IgSF4C
T2 sequence (looked up): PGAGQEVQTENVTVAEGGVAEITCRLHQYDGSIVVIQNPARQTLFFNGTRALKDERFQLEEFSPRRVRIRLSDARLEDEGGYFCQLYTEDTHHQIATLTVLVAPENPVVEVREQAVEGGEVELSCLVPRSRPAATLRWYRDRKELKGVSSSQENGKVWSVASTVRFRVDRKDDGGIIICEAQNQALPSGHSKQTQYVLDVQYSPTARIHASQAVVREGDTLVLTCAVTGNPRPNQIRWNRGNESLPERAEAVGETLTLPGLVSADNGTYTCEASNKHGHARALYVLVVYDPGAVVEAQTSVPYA

T3: Nectin-2 (UniProt Q92692 32-360, limits assumed)
T3 construct: Bought recombinant protein; also called CD112; PVRL-2
T3 sequence (looked up): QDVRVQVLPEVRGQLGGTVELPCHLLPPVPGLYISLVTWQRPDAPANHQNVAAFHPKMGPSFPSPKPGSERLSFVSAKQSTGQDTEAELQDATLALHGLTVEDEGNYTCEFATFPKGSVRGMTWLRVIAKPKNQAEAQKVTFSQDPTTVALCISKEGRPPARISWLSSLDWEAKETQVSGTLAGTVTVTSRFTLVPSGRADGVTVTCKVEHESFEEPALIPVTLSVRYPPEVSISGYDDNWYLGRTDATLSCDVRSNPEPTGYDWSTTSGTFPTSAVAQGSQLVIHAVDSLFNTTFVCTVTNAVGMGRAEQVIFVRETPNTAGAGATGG

T4: Nectin-like-2 (UniProt Q9BY67 45-374, limits assumed)
T4 construct: Bought recombinant protein; also called CADM1; IgSF4
T4 sequence (looked up): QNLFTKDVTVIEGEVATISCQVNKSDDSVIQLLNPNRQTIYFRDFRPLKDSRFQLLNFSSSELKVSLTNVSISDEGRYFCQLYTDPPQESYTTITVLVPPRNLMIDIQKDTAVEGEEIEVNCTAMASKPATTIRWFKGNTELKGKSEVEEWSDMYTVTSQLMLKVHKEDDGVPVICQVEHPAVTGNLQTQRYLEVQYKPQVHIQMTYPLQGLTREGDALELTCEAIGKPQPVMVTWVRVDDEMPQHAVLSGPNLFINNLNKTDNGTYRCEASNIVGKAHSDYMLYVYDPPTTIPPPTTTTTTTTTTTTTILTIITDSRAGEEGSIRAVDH

T5: Nectin-1 (UniProt Q15223 31-334, limits assumed)
T5 construct: Bought recombinant protein; also called CD111; PVRL-1
T5 sequence (looked up): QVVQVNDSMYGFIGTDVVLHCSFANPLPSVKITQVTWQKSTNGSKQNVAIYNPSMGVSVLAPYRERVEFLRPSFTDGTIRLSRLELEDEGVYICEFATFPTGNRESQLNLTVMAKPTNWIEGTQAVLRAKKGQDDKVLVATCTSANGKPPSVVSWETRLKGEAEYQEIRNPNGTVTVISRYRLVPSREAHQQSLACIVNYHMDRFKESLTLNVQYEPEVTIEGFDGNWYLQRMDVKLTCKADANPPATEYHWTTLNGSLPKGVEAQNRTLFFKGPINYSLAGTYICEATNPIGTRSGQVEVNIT

B1: Antibody R012 (antibody, V domains shown)
VH: SKSVEESGGRLVTPGTPLTLTCTVSGFSLSTYAMSWVRQAPGKGLEYIGIISGRGTTYYASWLKGRFTISKTSTTVDLKITSPTTEDTATYFCARDAGISDVYTGYFNLWGQGTLVTVSS
VL: QPVLAQLPSASAALGASAKLTCTLSSAHRTYTIAWYQQQQGEAPRYLMMLKSDGSYTKGTGVPDRFSGSSSGADRYLIISSVQAADEADYYCGADDSGGYVFGGGTQLTVTG
notes: Rabbit monoclonal antibody from phage display; also called Nectin-4 rabbit monoclonal antibody R012; rabbit antibody R012
B2: Antibody R036 (antibody, V domains shown)
VH: SQSVEESGGRLVTPGTPLTLTCTVSGFSLSSYAMSWVRQAPGKGLEYIGIIGGRGTTYYAIWAKGRFTISKTSTTVDLKITSPTTEDTATYFCARDAGTTYVGTTYVATGYFNLWGQGTLVTVSS
VL: B1 VL with A5T, L7P, R29K, M49I, K58R, A85D
notes: Rabbit monoclonal antibody from phage display; also called Nectin-4 rabbit monoclonal antibody R036; rabbit antibody R036
B3: Antibody MM11 (antibody, mouse IgG1, kappa, V domains shown)
VH: DVQLQESGPGLVKPSQSLSLTCSVTGYSITSNFYWNWIRQFPGNRLEWMGYISYDGSNNYNPSLKNRISISRDTSKNQFFLKLNSVTTEDTATYYCVRADYWGQGTLVTVSA
VL: DTVMTQTPLSLPVSLGDQASISCRSSQSLESSDGHAYLNWYLQKPGQSPQLLIYRVSNRFSGVLHRFSGSGSGTDFTLKISRVEAEDLGVYFCLQFTHVPFTFGSGTKLEIKR
notes: Mouse monoclonal antibody from hybridoma; also called Nectin-4 mouse monoclonal antibody MM11; mouse antibody MM11

What follows are binders tested against T1, Nectin-like-3 (assay: ELISA, coated antigen).
B1: no binding (tested: 10000 ng/ml). B2: no binding (tested: 10000 ng/ml). B3: no binding (tested: 10000 ng/ml).

What follows are binders tested against T2, Nectin-like-4 (assay: ELISA, coated antigen).
B1: no binding (tested: 10000 ng/ml). B2: no binding (tested: 10000 ng/ml). B3: no binding (tested: 10000 ng/ml).

The binders below were run against T3, Nectin-2 (assay: ELISA, coated antigen).
B1: no binding (tested: 10000 ng/ml). B2: no binding (tested: 10000 ng/ml). B3: no binding (tested: 10000 ng/ml).

What follows are binders tested against T6, Nectin-3 (UniProt Q9NQS3 58-404, limits assumed) (assay: ELISA, coated antigen).
T6 construct: Bought recombinant protein; also called CD113; PVRL-3
T6 sequence (Q9NQS3 58-404 limits assumed): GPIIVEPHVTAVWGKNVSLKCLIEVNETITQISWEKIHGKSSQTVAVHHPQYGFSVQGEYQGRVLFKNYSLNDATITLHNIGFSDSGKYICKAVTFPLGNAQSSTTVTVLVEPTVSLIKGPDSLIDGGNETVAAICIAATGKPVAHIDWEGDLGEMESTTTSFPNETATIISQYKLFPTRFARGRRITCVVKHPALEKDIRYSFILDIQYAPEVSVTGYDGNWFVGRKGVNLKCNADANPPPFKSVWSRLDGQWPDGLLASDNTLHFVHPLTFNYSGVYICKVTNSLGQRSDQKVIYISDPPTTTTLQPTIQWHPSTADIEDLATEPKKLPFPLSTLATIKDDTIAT
B1: no binding (tested: 10000 ng/ml). B2: no binding (tested: 10000 ng/ml). B3: no binding (tested: 10000 ng/ml).

What follows are binders tested against T4, Nectin-like-2 (assay: ELISA, coated antigen, antibody at 100 ng/ml).
Procedure: (§1) Coating: Nectin-1, Nectin-2, Nectin-3, Nectin-4, Nectin-like-1, Nectin-like-2, Nectin-like-3, Nectin-like-4, and Nectin-like-5 were diluted to 5 μg/ml in coating buffer (carbonate buffer, pH 9.6) respectively. A 96-well plate was coat with 100 μl per well and incubated overnight at 2-8° C.;
(§2) Sample loading: The plate was taken out, patted dry, and washed twice with 200 μl/well of PBST, then patted dry. The Nectin-4 antibodies prepared in Example 1 (antibody MM11, antibody R012, and antibody R036) were diluted with 1% BSA/PBST to concentrations of 10 μg/ml, 1 μg/ml, 100 ng/ml, and 10 ng/ml, respectively. 1% BSA/PBST solution for dilution was set as a blank control. 100 μl per well was added to the 96-well plate, and incubated at room temperature for 2 hours;
(§3) Reaction termination and plate reading: 100 μl/well of 1 mol/L H3PO4 was added to terminate the reaction and the plated was read. The absorbances of wells in the plate at 450 nm with 650 nm as reference wavelength were read and recorded as OD_{450 nm-650 nm}.
Work on B1 yielded an OD detection value of 0.008 OD450 nm-650 nm. Binder B2 has an OD detection value of 0.007 OD450 nm-650 nm. Work on B3 yielded an OD detection value of 0.007 OD450 nm-650 nm.

What follows are binders tested against T2, Nectin-like-4 (assay: ELISA, coated antigen, antibody at 100 ng/ml).
Procedure: as §1, §2, §3
For B1, the OD detection value was 0.008 OD450 nm-650 nm. In the case of B2, the OD detection value is reported as 0.007 OD450 nm-650 nm. B3 was tested, and the OD detection value was 0.007 OD450 nm-650 nm.

These binders were tested against T5, Nectin-1 (assay: ELISA, coated antigen, antibody at 100 ng/ml).
Procedure: as §1, §2, §3
B1 showed an OD detection value of 0.007 OD450 nm-650 nm. B2 was tested, and the OD detection value was 0.007 OD450 nm-650 nm. Work on B3 yielded an OD detection value of 0.008 OD450 nm-650 nm.

Each binder was assayed against T3, Nectin-2 (assay: ELISA, coated antigen, antibody at 100 ng/ml).
Procedure: as §1, §2, §3
B1 was tested, and the OD detection value was 0.007 OD450 nm-650 nm. Binder B2 has an OD detection value of 0.007 OD450 nm-650 nm. With B3 the OD detection value was 0.007 OD450 nm-650 nm.

Each binder was assayed against T6, Nectin-3 (assay: ELISA, coated antigen, antibody at 100 ng/ml).
Procedure: as §1, §2, §3
With B1 the OD detection value was 0.007 OD450 nm-650 nm. B2 was tested, and the OD detection value was 0.007 OD450 nm-650 nm. Binder B3 has an OD detection value of 0.014 OD450 nm-650 nm.
